Source: patent US9657062B2, “Ghrelin analogues” (Zealand Pharma A/S, priority 2012, dated 2017)
The star is where a group is joined. Octanoyl = CCCCCCCC(=O)*; Octyl = CCCCCCCC*

Target: human growth hormone secretagogue receptor type 1a (human, UniProt Q92847 1-366)
Assay: cell-based or functional assay

human growth hormone secretagogue receptor type 1a, sequence (Q92847 whole entry): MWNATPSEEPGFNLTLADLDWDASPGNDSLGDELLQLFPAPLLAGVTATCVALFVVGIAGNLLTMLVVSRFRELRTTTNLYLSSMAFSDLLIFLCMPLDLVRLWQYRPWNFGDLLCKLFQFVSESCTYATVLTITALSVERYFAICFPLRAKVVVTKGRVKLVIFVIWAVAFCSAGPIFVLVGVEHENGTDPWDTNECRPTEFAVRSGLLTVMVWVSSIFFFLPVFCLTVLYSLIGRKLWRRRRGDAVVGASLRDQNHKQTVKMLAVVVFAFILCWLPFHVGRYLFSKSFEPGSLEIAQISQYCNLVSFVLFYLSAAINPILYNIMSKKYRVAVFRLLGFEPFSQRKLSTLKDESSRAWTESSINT

Binder | EC50 (nM); Ca2+ induction in HEK293 cells stably expressing the human ghrelin receptor [nM]
XSSFLSPEHQRVQQRKESKKPPAKLQPR (DPro at position 1; Ser(O-octanoyl) at position 3; C-terminal -OH) [H-[DPro]-S-S(O-octanoyl)-FLSPEHQRVQQRKESKKPPAKLQPR-OH] | 0.786
H-PSS(Octanoyl)FLSPYHQRVQYRKESKKPPAYLQPR-NH2 (SMILES CCCCCCCC(=O)OC[C@H](NC(=O)[C@H](CO)NC(=O)[C@@H]1CCCN1)C(=O)N[C@@H](Cc1ccccc1)C(=O)N[C@@H](CC(C)C)C(=O)N[C@@H](CO)C(=O)N1CCC[C@H]1C(=O)N[C@@H](Cc1ccc(O)cc1)C(=O)N[C@@H](Cc1c[nH]cn1)C(=O)N[C@@H](CCC(N)=O)C(=O)N[C@@H](CCCNC(=N)N)C(=O)N[C@H](C(=O)N[C@@H](CCC(N)=O)C(=O)N[C@@H](Cc1ccc(O)cc1)C(=O)N[C@@H](CCCNC(=N)N)C(=O)N[C@@H](CCCCN)C(=O)N[C@@H](CCC(=O)O)C(=O)N[C@@H](CO)C(=O)N[C@@H](CCCCN)C(=O)N[C@@H](CCCCN)C(=O)N1CCC[C@H]1C(=O)N1CCC[C@H]1C(=O)N[C@@H](C)C(=O)N[C@@H](Cc1ccc(O)cc1)C(=O)N[C@@H](CC(C)C)C(=O)N[C@@H](CCC(N)=O)C(=O)N1CCC[C@H]1C(=O)N[C@@H](CCCNC(=N)N)C(N)=O)C(C)C) [H-PS-S(octanoyl)-FLSPYHQRVQYRKESKKPPAYLQPR-NH2] | 0.594
H-PSS(Octanoyl)FLSPEHQRVQYRKESKKPPAKLQPR-NH2 (SMILES CCCCCCCC(=O)OC[C@H](NC(=O)[C@H](CO)NC(=O)[C@@H]1CCCN1)C(=O)N[C@@H](Cc1ccccc1)C(=O)N[C@@H](CC(C)C)C(=O)N[C@@H](CO)C(=O)N1CCC[C@H]1C(=O)N[C@@H](CCC(=O)O)C(=O)N[C@@H](Cc1c[nH]cn1)C(=O)N[C@@H](CCC(N)=O)C(=O)N[C@@H](CCCNC(=N)N)C(=O)N[C@H](C(=O)N[C@@H](CCC(N)=O)C(=O)N[C@@H](Cc1ccc(O)cc1)C(=O)N[C@@H](CCCNC(=N)N)C(=O)N[C@@H](CCCCN)C(=O)N[C@@H](CCC(=O)O)C(=O)N[C@@H](CO)C(=O)N[C@@H](CCCCN)C(=O)N[C@@H](CCCCN)C(=O)N1CCC[C@H]1C(=O)N1CCC[C@H]1C(=O)N[C@@H](C)C(=O)N[C@@H](CCCCN)C(=O)N[C@@H](CC(C)C)C(=O)N[C@@H](CCC(N)=O)C(=O)N1CCC[C@H]1C(=O)N[C@@H](CCCNC(=N)N)C(N)=O)C(C)C) [H-PS-S(octanoyl)-FLSPEHQRVQYRKESKKPPAKLQPR-NH2] | 0.198
H-PSS(Octyl)FLSPEHQRVQQRKESKKPPAKLQPR-NH2 [H-PS-S(O-octyl)-FLSPEHQRVQQRKESKKPPAKLQPR-NH2] | 0.396
H-PSS(Octanoyl)FLSPEHQRVQQRKESKKPPAYLQPR-NH2 (SMILES CCCCCCCC(=O)OC[C@H](NC(=O)[C@H](CO)NC(=O)[C@@H]1CCCN1)C(=O)N[C@@H](Cc1ccccc1)C(=O)N[C@@H](CC(C)C)C(=O)N[C@@H](CO)C(=O)N1CCC[C@H]1C(=O)N[C@@H](CCC(=O)O)C(=O)N[C@@H](Cc1c[nH]cn1)C(=O)N[C@@H](CCC(N)=O)C(=O)N[C@@H](CCCNC(=N)N)C(=O)N[C@H](C(=O)N[C@@H](CCC(N)=O)C(=O)N[C@@H](CCC(N)=O)C(=O)N[C@@H](CCCNC(=N)N)C(=O)N[C@@H](CCCCN)C(=O)N[C@@H](CCC(=O)O)C(=O)N[C@@H](CO)C(=O)N[C@@H](CCCCN)C(=O)N[C@@H](CCCCN)C(=O)N1CCC[C@H]1C(=O)N1CCC[C@H]1C(=O)N[C@@H](C)C(=O)N[C@@H](Cc1ccc(O)cc1)C(=O)N[C@@H](CC(C)C)C(=O)N[C@@H](CCC(N)=O)C(=O)N1CCC[C@H]1C(=O)N[C@@H](CCCNC(=N)N)C(N)=O)C(C)C) [H-PS-S(octanoyl)-FLSPEHQRVQQRKESKKPPAYLQPR-NH2] | 0.252
